Assay results as given in paper PMC5859130, “Ixonnexin from Tick Saliva Promotes Fibrinolysis by Interacting with Plasminogen and Tissue-Type Plasminogen Activator, and Prevents Arterial Thrombosis” (Scientific Reports, 2018).

Tests used:
Factor Xa = assay: cell-based or functional assay
Lys-plasminogen = biological target: T1, Lys-plasminogen (UniProt P00747 97-810); assay: SPR; Ixonnexin amine-coupled to a carboxymethylated dextran (CM5) chip, 726.2 RU; analytes injected 120 s at 30 µL/min, 25 °C, dissociation 600 s; global fit with the two-state (conformational change) model, Langmuir 1:1 for plasmin; settings: both partners purified
T1 construct: source: bought: Enzyme Research Laboratories or Innovative Research
T1 sequence (P00747 97-810): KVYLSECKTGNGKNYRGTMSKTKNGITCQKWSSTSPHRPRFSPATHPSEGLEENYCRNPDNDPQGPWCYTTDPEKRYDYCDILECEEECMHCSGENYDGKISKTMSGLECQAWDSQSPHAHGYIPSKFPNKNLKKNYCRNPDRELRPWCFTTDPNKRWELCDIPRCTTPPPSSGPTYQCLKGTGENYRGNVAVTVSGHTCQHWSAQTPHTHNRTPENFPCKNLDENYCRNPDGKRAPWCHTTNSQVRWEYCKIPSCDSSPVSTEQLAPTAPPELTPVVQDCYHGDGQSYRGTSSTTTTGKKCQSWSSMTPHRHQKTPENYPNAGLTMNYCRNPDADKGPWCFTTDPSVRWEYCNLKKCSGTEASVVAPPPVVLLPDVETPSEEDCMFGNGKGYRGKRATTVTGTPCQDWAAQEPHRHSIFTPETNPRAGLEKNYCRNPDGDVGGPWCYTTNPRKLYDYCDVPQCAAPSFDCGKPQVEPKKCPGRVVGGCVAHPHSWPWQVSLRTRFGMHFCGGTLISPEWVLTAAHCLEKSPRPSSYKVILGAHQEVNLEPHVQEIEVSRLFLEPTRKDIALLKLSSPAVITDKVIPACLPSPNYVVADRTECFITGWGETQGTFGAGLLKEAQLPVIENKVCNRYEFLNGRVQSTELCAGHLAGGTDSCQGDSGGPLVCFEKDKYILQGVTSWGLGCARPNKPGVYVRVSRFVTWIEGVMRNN

[1] = biological target: the molecule itself; assay: SEC; Superdex 75 10/300, 20 mM Tris-HCl, 0.15 M NaCl, pH 8, 0.5 mL/min; column calibrated with salivary proteins of known mass

Chain of Factor Xa (P00742 32-488): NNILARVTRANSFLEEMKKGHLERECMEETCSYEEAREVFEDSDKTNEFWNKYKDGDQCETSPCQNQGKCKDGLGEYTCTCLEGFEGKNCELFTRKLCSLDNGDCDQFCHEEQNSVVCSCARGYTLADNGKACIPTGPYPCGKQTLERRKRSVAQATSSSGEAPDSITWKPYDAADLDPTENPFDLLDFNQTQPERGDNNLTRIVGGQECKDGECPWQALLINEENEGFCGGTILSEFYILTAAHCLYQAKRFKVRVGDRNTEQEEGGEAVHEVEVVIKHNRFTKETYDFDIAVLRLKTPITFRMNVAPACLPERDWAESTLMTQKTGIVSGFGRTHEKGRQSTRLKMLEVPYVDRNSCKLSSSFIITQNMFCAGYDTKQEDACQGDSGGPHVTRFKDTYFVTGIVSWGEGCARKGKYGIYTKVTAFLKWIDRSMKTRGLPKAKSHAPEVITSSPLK

B1: Ixonnexin (natural protein)
chain: HNCQNGTRPASEENREGCDYYCWNAETKSWDQFFFGNGERCFYNTGEKGTCLNGECHLTTSSGGPDDTGDNTPPPTEKPKQKKKKPKKTKKPKRKSKKDQKENF
notes: Ixonnexin, 'Basic-tail' family salivary protein of Ixodes scapularis (gi 67083505); the precursor has a signal peptide of 21 residues (cut between Ala21 and His22); the mature protein of 104 residues was synthesized; numbers count on: the mature protein; 3 disulfide bonds after folding; Gel filtration is consistent with a non-covalent dimer; mass spectrometry gave a single monomeric mass; also …
- amidolytic activity of FXa (0.33 nM) on a fluorogenic substrate, enhanced by Ixonnexin: IC50 (Factor Xa): 9.73 nM
- Kd (Lys-plasminogen): 14.4 nM
- stoichiometry N [1]: 2
